Test results taken from US20030175270A1, “Methods of regulating cytokine receptor signaling” (priority 2002, published 2003).

B1: TC-PTP: human non-receptor tyrosine PTPase, from Calbiochem (protein)
chain: MPTTIEREFEELDTQRRWQPLYLEIRNESHDYPHRVAKFPENRNRNRYRDVSPYDHSRVKLQNAENDYINASLVDIEEAQRSYILTQGPLPNTCCHFWLMVWQQKTKAVVMLNRIVEKESVKCAQYWPTDDQEMLFKETGFSVKLLSEDVKSYYTVHLLQLENINSGETRTISHFHYTTWPDFGVPESPASFLNFLFKVRESGSLNPDHGPAVIHCSAGIGRSGTFSLVDTCLVLMEKGDDINIKQVLLNMRKYRMGLIQTPDQLRFSYMAIIEGAKCIKGDSSIQKRWKELSKEDLSPAFDHSPNKIMTEKYNGNR
B2: PTPase-dead rCD45: PTPase-dead recombinant CD45, D1:C828S mutant (protein, UniProt P08575 26-1306, looked up, variant C828S)
Receptor-type …: QSPTPSPTGLTTAKMPSVPLSSDPLPTHTTAFSPASTFERENDFSETTTSLSPDNTSTQVSPDSLDNASAFNTTGVSSVQTPHLPTHADSQTPSAGTDTQTFSGSAANAKLNPTPGSNAISDVPGERSTASTFPTDPVSPLTTTLSLAHHSSAALPARTSNTTITANTSDAYLNASETTTLSPSGSAVISTTTIATTPSKPTCDEKYANITVDYLYNKETKLFTAKLNVNENVECGNNTCTNNEVHNLTECKNASVSISHNSCTAPDKTLILDVPPGVEKFQLHDCTQVEKADTTICLKWKNIETFTCDTQNITYRFQCGNMIFDNKEIKLENLEPEHEYKCDSEILYNNHKFTNASKIIKTDFGSPGEPQIIFCRSEAAHQGVITWNPPQRSFHNFTLCYIKETEKDCLNLDKNLIKYDLQNLKPYTKYVLSLHAYIIAKVQRNGSAAMCHFTTKSAPPSQVWNMTVSMTSDNSMHVKCRPPRDRNGPHERYHLEVEAGNTLVRNESHKNCDFRVKDLQYSTDYTFKAYFHNGDYPGEPFILHHSTSYNSKALIAFLAFLIIVTSIALLVVLYKIYDLHKKRSCNLDEQQELVERDDEKQLMNVEPIHADILLETYKRKIADEGRLFLAEFQSIPRVFSKFPIKEARKPFNQNKNRYVDILPYDYNRVELSEINGDAGSNYINASYIDGFKEPRKYIAAQGPRDETVDDFWRMIWEQKATVIVMVTRCEEGNRNKCAEYWPSMEEGTRAFGDVVVKINQHKRCPDYIIQKLNIVNKKEKATGREVTHIQFTSWPDHGVPEDPHLLLKLRRRVNAFSNFFSGPIVVHSSAGVGRTGTYIGIDAMLEGLEAENKVDVYGYVVKLRRQRCLMVQVEAQYILIHQALVEYNQFGETEVNLSELHPYLHNMKKRDPPSEPSPLEAEFQRLPSYRSWRTQHIGNQEENKSKNRNSNVIPYDYNRVPLKHELEMSKESEHDSDESSDDDSDSEEPSKYINASFIMSYWKPEVMIAAQGPLKETIGDFWQMIFQRKVKVIVMLTELKHGDQEICAQYWGEGKQTYGDIEVDLKDTDKSSTYTLRVFELRHSKRKDSRTVYQYQYTNWSVEQLPAEPKELISMIQVVKQKLPQKNSSEGNKHHKSTPLLIHCRDGSQQTGIFCALLNLLESAETEEVVDIFQVVKALRKARPGMVSTFEQYQFLYDVIASTYPAQNGQVKKNNHQEDKIEFDNEVDKVKQDANCVNPLGAPEKLPEAKEQAEGSEPTSGTEGPEHSVNGPASPALNQGS
B3: lambda PTPase: bacterial lambda PTPase, from Calbiochem (protein)
chain: MRYYEKIDGSKYRNIWVVGDLHGCYTNLMNKLDTIGFDNKKDLLISVGDLVDRGAENVECLELITFPWFRAVRGNHEQMMIDGLSERGNVNHWLLNGGGWFFNLDYDKEILAKALAHKADELPLIIELVSKDKKYVICHADYPFDEYEFGKPVDHQQVIWNRERISNSQNGIVKEIKGADTFIFGHTPAVKPLKFANQMYIDTGAVFCGNLTLIQVQGEGA

Tested on: JAK2
Test: in vitro tyrosine phosphatase assay, substrate JAK2
Type: biochemical, mouse
Conditions: 30° C., 20 min
Method: For tyrosine phosphatase assays, immunoprecipitated Lyn, JAKs or STATs from lysates of 10^7 BMMCs (for Lyn, JAK1, JAK2, STAT3 and STAT5) or macrophages (for Tyk2) were washed in lysis buffer and phosphatase reaction buffer [Felberg et al., J. Biol. Chem. 273:17839-17845, 1998]. The amounts of Lyn and JAK2 in the immunoprecipitates used in FIG. 3A were 72 ng and 48 ng, respectively, as determined by silver staining. Recombinant CD45 was added to substrates in the presence or absence of 0.1 mM Na3 VO4 followed by incubation at 30° C. for 20 min. Tyrosine phosphorylation was monitored by immunoblotting with phosphotyrosine-specific antibodies. The extent of tyrosine phosphorylation and amount of substrates were determined by quantifying the intensities of the immunoblots with NIH Image 1.61 software. Kinase activity in anti-Lyn or anti-JAK immunoprecipitates was assessed by an in vitro kinase assay with Raytide (Oncogen Science) as a substrate or using authophosphorylation [Lui et al., Genes Dev. 13:786-791, 1999]. In vitro binding assays were performed as described [Felberg et al., J. Biol. Chem. 273:17839-17845, 1998], using 1 μg of soluble GST, GST-CD45-D2, or GST-PTPase-dead CD45 (D1:C828S). EMSAs were as described [Charurvedi et al., Mol. Cell. Biol. 17:3295-3304, 1997]. The sequences of the EMSA probes were: STAT3, 5′-[…]-3′ (SEQ ID NO: 1); STAT3 mutant, 5′-[…]-3′ (SEQ ID NO: 2).
To determine whether CD45 could directly dephosphorylate JAKs and/or STATs, phosphatase assays were used in in vitro studies with recombinant CD45. The rCD45 employed contained the intracellular dual PTPase domains with a relative molecular mas of 97,000 (Mr 97K) (the catalytic D1 and the non-catalytic D2 domains) of CD45 but lacked its extracellular regions. […] Phosphorylation was examined with anti-phosphoryrosine, anti-phospho-Tyr 705 STAT3 (P-Y705-STAT3), and anti-phospho-Try 1007/Try 1008 JAK2 (P-Y1007/1008-JAK2). Assays were performed with 10U (for JAK2) or 90U (for STAT3) of rCD45. […]

Dephosphorylation of JAK2, did not dephosphorylate JAK2:
B1
B2
B3
